Data on one substance can be found in publication PMC8455029.

The target of assay [1] is AtFN3K C32A/C236A/C196A (Arabidopsis thaliana). Description: AUC.
Assay [2] shares this target. Description: SEC.

As for AtFN3K C32A/C236A/C196A (enzyme), the stoichiometry N in assay [1] and in assay [2] was 2 each time.
